Experimental data: US20210246224A1 (Regeneron, published 2021)
Values belong to the binder of their own block, whether it stands above or below them.

Columns and labels:
[1] = target: T1, human APLP2 extracellular domain expressed with a C-terminal myc-myc-hexahistidine tag (human, UniProt Q06481 32-692); assay: SPR, antibody captured, hAPLP2-MMH injected, 25 C
T1 construct: also called hAPLP2-MMH; APLP2.mmh

[2] = target: T2, human HER2 expressed on cells (cancer cell lines and normal primary cultures) (human, UniProt P04626 23-1255); assay: imaging, Alexa647-labelled antibody on MDA-MB-361 cells at 4 C; No Block
T2 construct: Endogenous HER2 of the cell lines; the same cells also express APLP2; also called human epidermal growth factor receptor 2
Protocol: (§1) For the assay, cells were plated on collagen-coated, black wall, 96-well, optical plates (Greiner, Cat #655936) at 2.5×10⁵ cells per well in their appropriate culture media (described in previous examples), and incubated overnight at 37° C. in 5% CO₂. The next day, the cells were placed in refrigeration at 4° C. for 30 minutes. […] To each antibody solution, either PBS alone, human HER2 extracellular domain expressed with a C-terminal myc-myc-hexahistidine tag (hHER2-MMH; SEQ ID NO: 53) alone, human APLP2 extracellular domain expressed with a C-terminal myc-myc-hexahistidine tag (hAPLP2-MMH; SEQ ID NO: 54) alone, or the combination of hHER2-MMH and hAPLP2-MMH was added at a concentration of […]. After incubation, and removal of culture media, 50 μL/well of the bispecific antibody and soluble protein solutions were added to the cells for 30 minutes at 4° C. The cells were subsequently washed with 150 μL/well of DMEM containing 10% FBS at 4° C. for 10 minutes. […] The fixing buffer was then removed, 100 uL of DPBS/CM was added and allowed to incubate for approximately 20 minutes at room temperature prior to image acquisition. Binding of the bispecific antibodies to each of the cell types was measured using an Image Xpress^Micro automatic microscope (Molecular Devices). Data acquired was analyzed using MetaXpress software (Molecular Devices). […]

[3] = target: T3, human HER2 extracellular domain expressed with a C-terminal myc-myc-hexahistidine tag (human, UniProt P04626 23-652); assay: SPR (Biacore 4000), antibody captured on anti-human Fc, hHER2-MMH injected, 37 C
T3 construct: also called hHER2-MMH; HER2.mmh
Protocol: (§2) Equilibrium dissociation constants (KD values) for HER2 and APLP2 binding to purified anti-HER2xAPLP2 bispecific and parental antibodies were determined using a real-time surface plasmon resonance biosensor using a Biacore 4000 instrument. The Biacore sensor surface was first derivatized by amine coupling with a monoclonal mouse anti-human Fc antibody (GE, Cat #BR-1008-39) to capture anti-HER2xAPLP2 bispecific monoclonal antibodies. […] Kinetic association rate constant (ka) and dissociation rate constant (kd) were determined by fitting the real-time sensorgrams to a 1:1 binding model using Scrubber 2.0c curve fitting software. Binding dissociation equilibrium constants (KD) and dissociative half-lives (t1/2) were calculated from the kinetic rate constants as: […]

[4] = target: T1, human APLP2 extracellular domain …; assay: SPR (Biacore 4000), antibody captured on anti-human Fc, hAPLP2-MMH injected, 37 C
Protocol: as §2

[5] = target: T2, human HER2 expressed on cells (cancer …); assay: imaging, Alexa647-labelled antibody on MDA-MB-361 cells at 4 C; competitor hHER2-MMH
Protocol: as §1

[6] = target: T2, human HER2 expressed on cells (cancer …); assay: imaging, Alexa647-labelled antibody on MDA-MB-361 cells at 4 C; competitor hAPLP2-MMH
Protocol: as §1

[7] = target: T2, human HER2 expressed on cells (cancer …); assay: imaging, Alexa647-labelled antibody on MDA-MB-361 cells at 4 C; competitors hHER2-MMH + hAPLP2-MMH
Protocol: as §1

[8] = target: T2, human HER2 expressed on cells (cancer …); assay: imaging, Alexa647-labelled antibody 10 ug/mL at 4 C on NBE cells; signal per nuclei, normalised to the highest cell line
Protocol: (§3) After, cells were washed twice with cold DMEM+10% FBS. […] After, the solution was replaced with DPBS/CM. Binding of the bispecific antibodies to each of the cell types was measured using an Image Xpress^Micro automatic microscope (Molecular Devices). […] (See also FIG. 2.)
(§4) The signal of antibody binding (mean intensity fluorescence of Alexa647) divided by the nuclei signals was determined for each condition using MetaXpress software (Molecular Devices). Values were normalized to the cell line displaying the highest antibody binding signal.

[9] = target: T2, human HER2 expressed on cells (cancer …); assay: imaging, Alexa647-labelled antibody 10 ug/mL at 4 C on NLE cells; signal per nuclei, normalised to the highest cell line
Protocol: as §3, §4

[10] = target: T2, human HER2 expressed on cells (cancer …); assay: imaging, Alexa647-labelled antibody 10 ug/mL at 4 C on MCF7 cells; signal per nuclei, normalised to the highest cell line
Protocol: as §3, §4

[11] = target: T2, human HER2 expressed on cells (cancer …); assay: imaging, Alexa647-labelled antibody 10 ug/mL at 4 C on T47D cells; signal per nuclei, normalised to the highest cell line
Protocol: as §3, §4

[12] = target: T2, human HER2 expressed on cells (cancer …); assay: imaging, Alexa647-labelled antibody 10 ug/mL at 4 C on BT483 cells; signal per nuclei, normalised to the highest cell line
Protocol: (§5) To test the ability of bispecific anti-HER2xAPLP2 molecules described herein to bind to cells lines expressing various levels of HER2, a high content imaging assay was performed. […] Cells were plated on collagen-coated, black wall, 96-well, optical plates (Greiner, Cat #655936) at 2.5×10⁵ cells per well in their appropriate culture media, which is described for each cell line/culture in Table 6, and incubated overnight at 37° C. in 5% CO₂.
as §3, §4

[13] = target: T2, human HER2 expressed on cells (cancer …); assay: imaging, Alexa647-labelled antibody 10 ug/mL at 4 C on SKBR3 cells; signal per nuclei, normalised to the highest cell line
Protocol: as §5, §3, §4

[14] = target: T2, human HER2 expressed on cells (cancer …); assay: imaging, Alexa647-labelled antibody 10 ug/mL at 4 C on JIMT-1 cells; signal per nuclei, normalised to the highest cell line
Protocol: as §3, §4

[15] = target: T2, human HER2 expressed on cells (cancer …); assay: imaging, Alexa647-labelled antibody 10 ug/mL at 4 C on MDA-MB-361 cells; signal per nuclei, normalised to the highest cell line
Protocol: as §3, §4

[16] = target: T2, human HER2 expressed on cells (cancer …); assay: imaging, Alexa647-labelled antibody 10 ug/mL at 4 C on MDA-MB-453 cells; signal per nuclei, normalised to the highest cell line
Protocol: as §3, §4

[17] = target: T2, human HER2 expressed on cells (cancer …); assay: imaging, Alexa647-labelled antibody 10 ug/mL at 4 C on MDA-MB-468 cells; signal per nuclei, normalised to the highest cell line
Protocol: as §3, §4

[18] = target: T1, human APLP2 extracellular domain …; assay: SPR, antibody captured, hAPLP2-MMH injected, 25 C (second row for this antibody)

T1 sequence (Q06481 other isoform, or with tags, fused parts or gaps): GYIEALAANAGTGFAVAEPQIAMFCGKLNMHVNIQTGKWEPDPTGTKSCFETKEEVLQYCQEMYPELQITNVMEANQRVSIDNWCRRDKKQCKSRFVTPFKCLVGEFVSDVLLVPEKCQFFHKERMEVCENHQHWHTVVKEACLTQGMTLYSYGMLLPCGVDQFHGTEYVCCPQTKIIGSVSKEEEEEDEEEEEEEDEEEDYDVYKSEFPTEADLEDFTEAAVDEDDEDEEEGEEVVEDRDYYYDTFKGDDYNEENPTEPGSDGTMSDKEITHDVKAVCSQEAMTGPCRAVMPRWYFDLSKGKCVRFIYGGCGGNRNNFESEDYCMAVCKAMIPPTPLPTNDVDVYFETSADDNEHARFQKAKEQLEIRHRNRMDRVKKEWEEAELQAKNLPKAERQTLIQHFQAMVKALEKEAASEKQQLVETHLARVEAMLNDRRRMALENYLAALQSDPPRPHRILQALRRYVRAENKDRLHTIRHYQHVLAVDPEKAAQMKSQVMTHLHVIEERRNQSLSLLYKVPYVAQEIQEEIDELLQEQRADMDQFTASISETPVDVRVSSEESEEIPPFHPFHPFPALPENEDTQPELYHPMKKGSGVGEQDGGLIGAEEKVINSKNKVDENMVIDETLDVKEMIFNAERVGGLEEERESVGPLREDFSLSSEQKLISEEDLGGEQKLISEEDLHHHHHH

B1: H4H25017D (bispecific antibody, IgG4, V domains shown)
VH 1: QVQLVQSGPEVKKPGASVKVSCKASGYTFPNFGISWVRQAPGQGLEWMGWIAPYNVATNYAPKLQGRVTMTTDTSTSTAYMELRSLRSDDTAVYYCARWGAGYMGYYYYGMDVWGQGTTVTVSS
VH 2: EVQLVESGGGLVQPGGSLRLSCAASGFTFSTYVMSWVRQAPGKGPEWVSGISGRTGTTYYADSVKGRFTISRDNSKNTLYLQMNSLRAEDTAVYYCASRITAAGRGYYYYYGMDVWGRGTTVTVSS
VL: not shown
notes: Wild-type kappa CL and a modified (chimeric) IgG4 CH domain as set forth in US20140243504A1; also called bispecific anti-HER2xAPLP2 antibody
90 nM hAPLP2-MMH Bound (RU) [1]: 13.4 RU
Kd [1]: 8.5 nM
koff [1]: 0.000782 s⁻¹
kon [1]: 92000 M⁻¹ s⁻¹
t½ [1]: 14.8 min
Bispecific antibody signal (Fold over blank) [2]: 14 fold over blank
Kd [3]: 4.85 nM
koff [3]: 0.0009 s⁻¹
kon [3]: 186000 M⁻¹ s⁻¹
t½ [3]: 13 min
100 nM hAPLP2-MMH Bound (RU) [4]: 13 RU
Kd [4]: 281 nM
koff [4]: 0.00977 s⁻¹
kon [4]: 34700 M⁻¹ s⁻¹
t½ [4]: 1.2 min
Bispecific antibody signal (Fold over blank) [5]: 3 fold over blank
Bispecific antibody signal (Fold over blank) [6]: 13 fold over blank
Bispecific antibody signal (Fold over blank) [7]: 5 fold over blank
Antibody bound (% of highest) [8]: 10%
Antibody bound (% of highest) [9]: 4%
Antibody bound (% of highest) [10]: 9%
Antibody bound (% of highest) [11]: 7%
Antibody bound (% of highest) [12]: 22%
Antibody bound (% of highest) [13]: 100%
Antibody bound (% of highest) [14]: 17%
Antibody bound (% of highest) [15]: 35%
Antibody bound (% of highest) [16]: 31%
Antibody bound (% of highest) [17]: 1%

B2: H4H25019D (bispecific antibody, IgG4, V domains shown)
VH 1: B1 VH 1
VH 2: EVQLVESGGGLVQPGRSLRLSCVASGFTFADYAMHWVRQAPGKGLEWVSGISWNSGNIDYADSVKGRFTISRDNAKNSLYLQMNSLRTEDTALYYCAKVRIVVAGYYYYYYGMDVWGQGTTVTVSS
VL: not shown
notes: as for B1
90 nM hAPLP2-MMH Bound (RU) [1]: 30.6 RU
Kd [1]: 14.6 nM
t½ [1]: 8.7 min
t½ [3]: 11 min
Kd [18]: 17.2 nM
t½ [18]: 6.7 min
100 nM hAPLP2-MMH Bound (RU) [4]: 48 RU
Kd [4]: 183 nM
t½ [4]: 1.1 min
Antibody bound (% of highest) [8]: 6%
Antibody bound (% of highest) [9]: 2%
Antibody bound (% of highest) [10]: 7%
Antibody bound (% of highest) [11]: 9%
Antibody bound (% of highest) [12]: 22%
Antibody bound (% of highest) [13]: 100%
Antibody bound (% of highest) [14]: 15%
Antibody bound (% of highest) [15]: 32%
Antibody bound (% of highest) [16]: 30%
Antibody bound (% of highest) [17]: 1%

B4: H4H25018D (bispecific antibody, IgG4, V domains shown)
VH 1: QVQLQESGPGLVKPSQTLSLTCTVSGGSISSGHYFWSWIRQHPGKGLEWIGYIFYSGSTHYNPSLKSRLSISVDTSKNQFSLRLTSVTAADTAVYYCAREEGDYNFWDVDYVPGHFDYWGQGTLVTVSS
VH 2: B2 VH 2
VL: not shown
notes: as for B1
90 nM hAPLP2-MMH Bound (RU) [1]: 30.2 RU
Kd [1]: 15.6 nM
t½ [1]: 6.8 min
Kd [3]: 4.21 nM
Kd [18]: 16.6 nM
t½ [18]: 7.7 min
100 nM hAPLP2-MMH Bound (RU) [4]: 49 RU
Kd [4]: 145 nM
t½ [4]: 1.2 min
Antibody bound (% of highest) [8]: 9%
Antibody bound (% of highest) [9]: 3%
Antibody bound (% of highest) [10]: 6%
Antibody bound (% of highest) [11]: 5%
Antibody bound (% of highest) [12]: 16%
Antibody bound (% of highest) [13]: 100%
Antibody bound (% of highest) [14]: 17%
Antibody bound (% of highest) [15]: 30%
Antibody bound (% of highest) [16]: 25%
Antibody bound (% of highest) [17]: 1%

Results, then the binder that gave them:

100 nM hAPLP2-MMH Bound (RU) [4]: 24 RU
Kd [4]: 976 nM
t½ [4]: 0.04 min
Antibody bound (% of highest) [8]: 8%
Antibody bound (% of highest) [9]: 7%
Antibody bound (% of highest) [10]: 7%
Antibody bound (% of highest) [11]: 8%
Antibody bound (% of highest) [12]: 22%
Antibody bound (% of highest) [13]: 100%
Antibody bound (% of highest) [14]: 17%
Antibody bound (% of highest) [15]: 37%
Antibody bound (% of highest) [16]: 28%
Antibody bound (% of highest) [17]: 1%
B3: H4H25021D (bispecific antibody, IgG4, V domains shown)
VH 1: B1 VH 1
VH 2: QVQLVQSGVEVKKPGASVKVSCKASGYTFTDYGISWVRQAPGQGLEWMGWISAHNGNTNYAQKLQGRVTMTTDTSTNTAYMELRSLRSDDTAVYYCARRNWKYFDYWGQGTLVTVSS
VL: not shown
notes: as for B1

Kd [3]: 4.2 nM
100 nM hAPLP2-MMH Bound (RU) [4]: 30 RU
Kd [4]: 844 nM
t½ [4]: 0.03 min
Antibody bound (% of highest) [8]: 8%
Antibody bound (% of highest) [9]: 6%
Antibody bound (% of highest) [10]: 5%
Antibody bound (% of highest) [11]: 5%
Antibody bound (% of highest) [12]: 15%
Antibody bound (% of highest) [13]: 100%
Antibody bound (% of highest) [14]: 18%
Antibody bound (% of highest) [15]: 27%
Antibody bound (% of highest) [16]: 24%
Antibody bound (% of highest) [17]: 1%
B5: H4H25020D (bispecific antibody, IgG4, V domains shown)
VH 1: B4 VH 1
VH 2: B3 VH 2
VL: not shown
notes: as for B1
